# Test results published in US11402384B2 (Duke University, priority 2015, dated 2022).
# Residue numbers refer to the chain shown, from its start. Names and notes keep the numbering of the source. Read-outs that look alike come from different tables or passages of the source.
# B1: H119C Badan: tsGBP2_C119 (SEQ ID NO: 25) Badan conjugate (conjugate)
# chain: MKLEIFSWWAGDEGPALEALIRLYKQKYPGVEVINATVTGGAGVNAKAVLKTRMLGGDPPDTFQVHAGQELIGTWVVADRMEDLTSLFRQEGWLQAFPKGLIDLLSYKGGIWSVPVNICRSNVMWYIPAKLKEWGVTPPKTWAEFLATAQTLKRKGLEAPLALGENWTQQHLWESVALATLGADGWNNLWSGKLKFTDPKAVAVWETFGKVLDAANKDAAGLSWQQAVDRVVQGKAAFNIMGDWAAGYMSTTLKLKPGTDFAWTPSPGTSGIFMMLSDSFGLPKGAKNRQNAINWLKLVGSKEGQDTFNPLKGSIAARLDSDPAKYNAYGQSAMKDWKSNRIVGSLVHGAVAPESFMSQFGTVMEIFLQSRNPQAAANAAQAIANQVGLGRGGSHHHHHH
# modifications: Badan conjugate; tsGBP2_C119 (119C substitution mutant with signal peptide replaced with M and a GGSHHHHHH at C-terminus)
# B2: W167C Acrylodan: tsGBP2_C167 (SEQ ID NO: 26) Acrylodan conjugate (conjugate)
# chain: B1 chain with C119H, W167C
# modifications: Acrylodan conjugate; tsGBP2_C167 (167C substitution mutant with signal peptide replaced with M and a GGSHHHHHH at C-terminus)
# B3: W167C Badan: tsGBP2_C167 (SEQ ID NO: 26) Badan conjugate (conjugate)
# chain: B1 chain with C119H, W167C
# modifications: Badan conjugate; tsGBP2_C167 (167C substitution mutant with signal peptide replaced with M and a GGSHHHHHH at C-terminus)
# B4: S223C Acrylodan: tsGBP2_C223 (SEQ ID NO: 27) Acrylodan conjugate (conjugate)
# chain: B1 chain with C119H, S223C
# modifications: Acrylodan conjugate; tsGBP2_C223 (223C substitution mutant with signal peptide replaced with M and a GGSHHHHHH at C-terminus)
# B5: S223C Badan: tsGBP2_C223 (SEQ ID NO: 27) Badan conjugate (conjugate)
# chain: B1 chain with C119H, S223C
# modifications: Badan conjugate; tsGBP2_C223 (223C substitution mutant with signal peptide replaced with M and a GGSHHHHHH at C-terminus)
# B6: W224C Acrylodan: tsGBP2_C224 (SEQ ID NO: 28) Acrylodan conjugate (conjugate)
# chain: B1 chain with C119H, W224C
# modifications: Acrylodan conjugate; tsGBP2_C224 (224C substitution mutant with signal peptide replaced with M and a GGSHHHHHH at C-terminus)
# B7: W224C Badan: tsGBP2_C224 (SEQ ID NO: 28) Badan conjugate (conjugate)
# chain: B1 chain with C119H, W224C
# modifications: Badan conjugate; tsGBP2_C224 (224C substitution mutant with signal peptide replaced with M and a GGSHHHHHH at C-terminus)
# B8: Q225C Acrylodan: tsGBP2_C225 (SEQ ID NO: 29) Acrylodan conjugate (conjugate)
# chain: B1 chain with C119H, Q225C
# modifications: Acrylodan conjugate; tsGBP2_C225 (225C substitution mutant with signal peptide replaced with M and a GGSHHHHHH at C-terminus)
# B9: Q225C Badan: tsGBP2_C225 (SEQ ID NO: 29) Badan conjugate (conjugate)
# chain: B1 chain with C119H, Q225C
# modifications: Badan conjugate; tsGBP2_C225 (225C substitution mutant with signal peptide replaced with M and a GGSHHHHHH at C-terminus)
# B10: W244C Badan: tsGBP2_C244 (SEQ ID NO: 30) Badan conjugate (conjugate)
# chain: B1 chain with C119H, W244C
# modifications: Badan conjugate; tsGBP2_C244 (244C substitution mutant with signal peptide replaced with M and a GGSHHHHHH at C-terminus)
# B11: S277C Acrylodan: tsGBP2_C277 (SEQ ID NO: 31) Acrylodan conjugate (conjugate)
# chain: B1 chain with C119H, S277C
# modifications: Acrylodan conjugate; tsGBP2_C277 (cysteine substitution mutant with signal peptide replaced with M and a GGSHHHHHH at C-terminus)
# B12: S277C Badan: tsGBP2_C277 (SEQ ID NO: 31) Badan conjugate (conjugate)
# chain: B1 chain with C119H, S277C
# modifications: Badan conjugate; tsGBP2_C277 (cysteine substitution mutant with signal peptide replaced with M and a GGSHHHHHH at C-terminus)
# B13: D278C Acrylodan: tsGBP2_C278 (SEQ ID NO: 32) Acrylodan conjugate (conjugate)
# chain: B1 chain with C119H, D278C
# modifications: Acrylodan conjugate; tsGBP2_C278 (278C substitution mutant with signal peptide replaced with M and a GGSHHHHHH at C-terminus)
# B14: D278C Badan: tsGBP2_C278 (SEQ ID NO: 32) Badan conjugate (conjugate)
# chain: B1 chain with C119H, D278C
# modifications: Badan conjugate; tsGBP2_C278 (278C substitution mutant with signal peptide replaced with M and a GGSHHHHHH at C-terminus)
# B15: K312C Acrylodan: tsGBP2_C312 (SEQ ID NO: 33) Acrylodan conjugate (conjugate)
# chain: B1 chain with C119H, K312C
# modifications: Acrylodan conjugate; tsGBP2_C312 (312C substitution mutant with signal peptide replaced with M and a GGSHHHHHH at C-terminus)
# B16: K312C Badan: tsGBP2_C312 (SEQ ID NO: 33) Badan conjugate (conjugate)
# chain: B1 chain with C119H, K312C
# modifications: Badan conjugate; tsGBP2_C312 (312C substitution mutant with signal peptide replaced with M and a GGSHHHHHH at C-terminus)
# B17: W337 Acrylodan: tsGBP2_C337 (SEQ ID NO: 34) Acrylodan conjugate (conjugate)
# chain: B1 chain with C119H, W337C
# modifications: Acrylodan conjugate; tsGBP2_C337 (337C substitution mutant with signal peptide replaced with M and a GGSHHHHHH at C-terminus)
# B18: W337 Badan: tsGBP2_C337 (SEQ ID NO: 34) Badan conjugate (conjugate)
# chain: B1 chain with C119H, W337C
# modifications: Badan conjugate; tsGBP2_C337 (337C substitution mutant with signal peptide replaced with M and a GGSHHHHHH at C-terminus)
# Assay: Ratiometric fluorescence glucose titration of fluorescent conjugates
# Type: binding
# Design: key to Shape (fluorescence response to glucose) / Change (fluorescence response to glucose): m, monochromatic; d, dichromatic (i.e. spectral shape change); 0, no change
# Settings: tsGBP2 cysteine scan; for Kd: ratiometric fit at λ1 and λ2
# From the text: Semi-synthetic FRSs can be engineered by site-specifically attaching thiol-reactive, environmentally sensitive fluorophores that respond to ligand-mediated conformational changes. Identification of FRS candidates that can be used for sensing applications comprises three steps: • 1. Cysteine scan. Mutant glucose-binding proteins containing single cysteines are constructed for site-specific attachment of thiol-reactive fluorophores. […] Candidate positions fall into three classes: endosteric, replacing a residue that contacts the ligand directly; peristeric, located at the rim of the binding site; allosteric (Marvin et al., 1997, Proc Natl Acad Sci USA, 94, 4366-71; Marvin, 1998, J Am Chem Soc, 120, 7-11), located outside the binding site at sites that undergo local structural changes in concert with the hinge-bending motion. • 2. Fluorophore screening. Thiol-reactive, environmentally sensitive fluorophores are attached to each cysteine mutant prepared in step 1. • 3. Evaluation of the glucose-mediated change of all the fluorescent conjugates prepared in step 2. Responses to ligand binding in which there is both a change in fluorescence emission intensity and spectral shape are essential for chemometric applications, because such changes enable ratiometric measurements. Changes in spectral shape typically are accompanied by a shift in the wavelength of the emission intensity maxima. Three classes of fluorescent responses are possible: • i. No response. • ii. Monochromatic response (emission intensity increases or decreases without a change in spectral shape) • iii.
# Determination of temperature- and ligand-dependent fluorescence landscapes. […] Temperatures were advanced in 1K steps.
# Determination of emission intensity spectra.
# 2 For a single glucose-binding site, the fractional saturation is given by […]
# [1] = Acrylodan conjugate, read-out: Kd ^appKd
# [2] = Acrylodan conjugate, read-out: Kd ^trueKd
Molecule,Shape (fluorescence response to glucose) (Badan conjugate),Shape (fluorescence response to glucose) (Acrylodan conjugate),other results
B1,m,–,–
B2,–,d,Kd [1]: 20 µM; Kd [2]: 20 µM
B3,m,–,–
B4,–,0,–
B5,m,–,–
B6,–,m,Kd [1]: 700 µM; Kd [2]: 900 µM
B7,0,–,–
B8,–,m,–
B9,m,–,–
B10,m,–,–
B11,–,0,–
B12,0,–,–
B13,–,m,–
B14,0,–,–
B15,–,d,Kd [1]: 9 µM; Kd [2]: 10 µM
B16,m,–,–
B17,–,m,–
B18,0,–,–
